Test results as given in US20210231678A1, “ALLERGY ANTIGEN AND EPITOPE THEREOF” (FUJITA ACADEMY, priority 2020, published 2021).

B1: Citrate-binding protein (protein, listed as Hevea brasiliensis)
chain: MKMKRSPYCFCCSFALLLLVSFLKDRHFCSADPTDGFTEVPLTEDNFVIQKPYDKPLNDRYSYKNGIRRLWVYENDKPFKVGSPTRPRTEIRIKGHDYSSGVWQFEGQVHVPEGTSGVTVMQVFGAVNKATALQLRVYNGDLKSYKSNSVATDIYNKWLRVNVIHKVGKGEITVFINGQQKLVVNDDGPAEHYFKCGVYAAPDGSSNYMESRWKNIKLYKSDNKLEGCNNNHGTWLVQ
B2: Hevamine-A (protein, listed as Hevea brasiliensis)
chain: MAKRTQAILLLLLAISLIMSSSHVDGGGIAIYWGQNGNEGTLTQTCSTRKYSYVNIAFLNKFGNGQTPQINLAGHCNPAAGGCTIVSNGIRSCQIQGIKVMLSLGGGIGSYTLASQADAKNVADYLWNNFLGGKSSSRPLGDAVLDGIDFDIEHGSTLYWDDLARYLSAYSKQGKKVYLTAAPQCPFPDRYLGTALNTGLFDYVWVQFYNNPPCQYSSGNINNIINSWNRWTTSINAGKIFLGLPAAPEAAGSGYVPPDVLISRILPEIKKSPKYGGVMLWSKFYDDKNGYSSSILDSVLFLHSEECMTVL

Test system: IgE antibody in the serum of a latex-allergic patient
Assay: Immunoblotting of two-dimensional electrophoresis gels of latex proteins with patient serum
Assay type: binding, human
Details: immunoblot of 2D electrophoresis gel of latex proteins, compared with serum of non-latex-allergic subject
Experimental: Identification of antigens by immunoblotting was carried out by taking all the steps up to the step of “Second-dimensional SDS-PAGE” as described above in Example 1, followed by the steps of “Transfer to membrane”, “Immunoblotting” and “Analysis” as described below.
Transfer system: XCell SureLock Mini-Cell and XCell II Blot Module (produced by Life Technologies) Transfer buffer: NuPAGE Transfer Buffer (X20) (produced by Life Technologies), used in a form diluted 200-fold with milliQ water.
Immunoblotting of the membrane was carried out using, as a primary antibody, a serum sample from a patient with a latex allergy or a serum sample from a non-latex-allergic subject.
(1) The transferred membrane was shaken in a 5% skim milk/PBST solution (a PBS buffer containing 0.1% Tween 20 nonionic surfactant) at room temperature for one hour. […]
The immunoblots obtained with the serum from the latex-allergic patient were compared with those obtained with the control serum from the non-latex-allergic subject. For protein present in latex, in immunoblotting using the serum from the latex-allergic patient, 2 spots were detected, which are different from the spots detected when the serum of the non-latex-allergic subject was used and different from those of the known latex allergen proteins. […]

Molecule | specific binding to IgE antibodies from allergic patients
B1 | specifically bind to IgE antibodies from allergic patients
B2 | specifically bind to IgE antibodies from allergic patients
